Laboratory results reported in patent publication US20250283065A1, “TRUNCATED POLYPEPTIDES HAVING PROTEIN LIGASE ACTIVITY AND METHODS OF PRODUCTION THEREOF” (NANYANG TECHNOLOGICAL UNIVERSITY, priority 2022, published 2025).

B1: OaAEP1b-C247A-Δ351 with His-tag and TEV cleavage sequence (construct for recombinant expression) (protein)
chain: MHHHHHHSSGVDLGTENLYFQSVGTRWAVLIAGSKGYANYRHQAGVCHAYQILKRGGLKDENIVVFMYDDIAYNESNPRPGVIINSPHGSDVYAGVPKDYTGEEVNAKNFLAAILGNKSAITGGSGKVVDSGPNDHIFIYYTDHGAAGVIGMPSKPYLYADELNDALKKKHASGTYKSLVFYLEACESGSMFEGILPEDLNIYALTSTNTTESSWCYYCPAQENPPPPEYNVCLGDLFSVAWLEDSDVQNSWYETLNQQYHHVDKRISHASHATQYGNLKLGEEGLFVYMGSNPANDNYTSLDGNALTPSSIVVNQRDAD
B2: acid-activated OaAEP1b-C247A (protein)
chain: MVRYLAGAVLLLVVLSVAAAVSGARDGDYLHLPSEVSRFFRPQETNDDHGEDSVGTRWAVLIAGSKGYANYRHQAGVCHAYQILKRGGLKDENIVVFMYDDIAYNESNPRPGVIINSPHGSDVYAGVPKDYTGEEVNAKNFLAAILGNKSAITGGSGKVVDSGPNDHIFIYYTDHGAAGVIGMPSKPYLYADELNDALKKKHASGTYKSLVFYLEACESGSMFEGILPEDLNIYALTSTNTTESSWAYYCPAQENPPPPEYNVCLGDLFSVAWLEDSDVQNSWYETLNQQYHHVDKRISHASHATQYGNLKLGEEGLFVYMGSNPANDNYTSLDGNALTPSSIVVNQRDADLLHLWEKFRKAPEGSARKEEAQTQIFKAMSHRVHIDSSIKLIGKLLFGIEKCTEILNAVRPAGQPLVDDWACLRSLVGTFETHCGSLSEYGMRHTRTIANICNAGISEEQMAEAASQACASIP
B3: acid-activated OaAEP1b-C247A: full-length OaAEP1b-C247A proenzyme expressed in E. coli and activated at low pH according to reference [17] (protein, listed as Oldenlandia affinis)
chain: B2 chain
modifications: acid-activated

Legend:
OaAEP1b-C247A-Δ351 = assay: Active site titration by FRET ligation assay with covalent inhibitor; assay type: biochemical, Oldenlandia affinis; conditions: enzyme 280 nM, 1 hour incubation
Experimental: Active site titration: The procedure described in reference was followed. The enzyme preparation was diluted to a concentration of 280 nM using a buffer containing 20 mM sodium phosphate at pH 6.5, 5 mM 2-Mercaptoethanol. Solutions containing serial twofold dilution of inhibitor YVAD-cmk were prepared in a black microtiter plate (Greiner Bio-One) using buffer as diluent. The enzyme was subsequently added to the wells containing the inhibitor to a final volume of 50 μL. The plate was incubated for 1 hour at room temperature before adding FRET peptides (PIE {EDANS} YNAL (SEQ ID NO:18) and GIK {DABSYL} SIP (SEQ ID NO: 19)), which were mixed at a molar ratio of 1:3 giving a final enzyme: substrate molar ratio of 1:200. The EDANS fluorescence signal was measured with an excitation wavelength of 336 nm and an emission wavelength of 490 nm. Relative fluorescence units (RFU) of quenched EDANS signal were plotted against time. The value of the initial velocity (Vi) was determined from the slope of the RFU (t) curve. The measured value of Vi was subsequently normalized by dividing with the initial rate obtained in the absence of inhibitor (control V0). The calculated Vi/V0 ratio was plotted against inhibitor concentrations, generating an inhibition curve. […]

[1] = molecular target: mixture of FRET peptides A: PIE{EDANS}YNAL and B: GIK{DABSYL}SIP at a molar ratio of 1:3
[2] = molecular target: OaAEP1b-C247A-Δ351 with His-tag and TEV cleavage sequence (construct for recombinant expression) (Oldenlandia affinis); assay: cell-based or functional assay
[3] = system: peptides PIE {EDANS} YNAL and GIK {DABSYL} SIP; assay: FRET ligation kinetics assay; assay type: biochemical; conditions: 50 nM enzyme, peptides A:B molar ratio 1:3
Experimental: Kinetics assay: The kinetic properties of the peptide ligation of the constitutively active PAL were studied using a FRET assay. Two peptides synthesized by GenScript: PIE {EDANS} YNAL (SEQ ID NO:18) and GIK {DABSYL} SIP (SEQ ID NO:19) were mixed at a molar ratio of 1:3. Upon ligation, the peptide PIE {EDANS} YNGIK {DABSYL} SIP (SEQ ID NO: 20) is produced. 50 nM of PAL enzyme is mixed with various concentrations of the peptide mixture. The EDANS fluorescence signal was measured with an excitation wavelength of 336 nm and an emission wavelength of 490 nm. A reduction in EDANS fluorescence signal occurs upon ligation of the two peptides due to quenching by DABSYL. The variation in fluorescence signal for each substrate mixture concentration was measured after addition of the enzyme to initiate the reaction. The rate of decrease in fluorescence signal during the first 30 seconds after enzyme addition was plotted against the substrate concentration to obtain the Vmax, kcat and KM values for each enzyme.
Next, using a FRET ligation assay, the ligase activity of the truncated OaAEP1b-C247A-Δ351 was compared with its acid-activated zymogen counterpart. Briefly, 50 nM of either enzyme was added to a mixture of two peptides A: PIE (EDANS) YNAL (SEQ ID NO:18) and B: GIK (DABSYL) SIP (SEQ ID NO:19). These two peptides were mixed in a A:B molar ratio of 1:3. Upon ligation, the fluorescence signal emission of the EDANS moiety of A (λem=490 nm) becomes quenched by the DABSYL moiety of B. (FIG. 7A). This assay the ligation rate to be followed between both peptides in real-time, giving access to the kinetic parameters of the truncated enzyme.

| Molecule | Km (FRET ligation assay) [1] [µM] | Vmax (FRET ligation assay) [1] [RFU/see] | further results |
| --- | --- | --- | --- |
| ac-YVAD-cmk [reference compound] | – | – | minimal concentration of inhibitor necessary for a complete inhibition of the ligation activity (OaAEP1b-C247A-Δ351): 150 nM |
| B1 | 8.16 | 6.40 | – |
| B2 | 8.34 | 14.32 | – |
| YVAD (N-terminal acetyl; C-terminal chloromethylketone (cmk)) [Ac-YVAD-cmk] | – | – | fraction of the measured protein concentration that is active and amenable to complete inhibition (active site titration) [2]: 53%; minimal concentration of inhibitor necessary for a complete inhibition of the ligation activity (active site titration, enzyme at 280 nM) [2]: 150 nM |
| B3 | – | – | Vmax [3]: 14.32 RFU/see |
